Laboratory results published in PMC4071823, “Gamma-secretase subunits associate in intracellular membrane compartments in Arabidopsis thaliana” (Journal of Experimental Botany, 2014).

T1: AtPEN-2–RFP (Arabidopsis thaliana, UniProt Q9FY84 1-146)
T1 construct: Arabidopsis thaliana PEN-2 (AtPEN-2, At5g09310); FLIM-FRET acceptor; also called presenilin enhancer 2; source: A. thaliana leaf mesophyll protoplasts, transiently transfected (pSITE vector), in living cells; not shown: mRFP, C-terminal, kept
T1 sequence (looked up): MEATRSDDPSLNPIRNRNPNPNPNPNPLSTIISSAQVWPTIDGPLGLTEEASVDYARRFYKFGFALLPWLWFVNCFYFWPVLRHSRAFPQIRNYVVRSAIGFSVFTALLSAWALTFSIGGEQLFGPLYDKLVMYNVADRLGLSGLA

T2: AtNCT–RFP (Arabidopsis thaliana, UniProt Q8GUM5 29-676)
T2 construct: Arabidopsis thaliana nicastrin (AtNCT, At3g52640); FLIM-FRET acceptor; also called nicastrin; source: A. thaliana leaf mesophyll protoplasts, transiently transfected (pSITE vector), in living cells; not shown: mRFP, C-terminal, kept
T2 sequence (looked up): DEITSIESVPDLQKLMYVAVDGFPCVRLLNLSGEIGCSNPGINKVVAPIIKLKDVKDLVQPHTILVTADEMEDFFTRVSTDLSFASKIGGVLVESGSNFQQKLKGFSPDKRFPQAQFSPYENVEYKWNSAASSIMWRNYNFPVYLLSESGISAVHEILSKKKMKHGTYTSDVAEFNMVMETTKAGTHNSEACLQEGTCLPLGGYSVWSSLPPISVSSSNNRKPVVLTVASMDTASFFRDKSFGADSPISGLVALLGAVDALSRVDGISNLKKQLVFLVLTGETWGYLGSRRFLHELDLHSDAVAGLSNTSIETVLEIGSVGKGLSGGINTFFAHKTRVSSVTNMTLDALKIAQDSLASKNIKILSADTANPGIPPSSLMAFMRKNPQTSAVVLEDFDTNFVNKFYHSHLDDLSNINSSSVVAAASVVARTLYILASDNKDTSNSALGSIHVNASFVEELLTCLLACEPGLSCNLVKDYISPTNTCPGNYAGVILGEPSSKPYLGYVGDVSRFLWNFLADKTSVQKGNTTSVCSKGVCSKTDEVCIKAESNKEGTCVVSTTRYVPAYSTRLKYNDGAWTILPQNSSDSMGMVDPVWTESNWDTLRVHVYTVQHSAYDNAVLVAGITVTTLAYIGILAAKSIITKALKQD


Legend:
Assay in all cases: FRET or BRET; FLIM-FRET in living A. thaliana leaf mesophyll protoplasts that co-express the two fusions; eGFP donor, mRFP acceptor; E=1−τDA/τD×100%; FRET efficiency above the threshold of 5% (free eGFP with free mRFP) taken as putative positive interaction
Conditions in all cases: partners not purified
AtAPH-1–RFP = target: T3, AtAPH-1–RFP (Arabidopsis thaliana, UniProt Q8L9G7 1-250)
T3 construct: Arabidopsis thaliana APH-1 (AtAPH-1, At2g31440); FLIM-FRET acceptor; also called anterior pharynx-defective 1; source: A. thaliana leaf mesophyll protoplasts, transiently transfected (pSITE vector), in living cells; not shown: mRFP, C-terminal, kept

AtPEN-2–RFP = target: T1, AtPEN-2–RFP
AtNCT–RFP = target: T2, AtNCT–RFP

T3 sequence (Q8L9G7 whole entry): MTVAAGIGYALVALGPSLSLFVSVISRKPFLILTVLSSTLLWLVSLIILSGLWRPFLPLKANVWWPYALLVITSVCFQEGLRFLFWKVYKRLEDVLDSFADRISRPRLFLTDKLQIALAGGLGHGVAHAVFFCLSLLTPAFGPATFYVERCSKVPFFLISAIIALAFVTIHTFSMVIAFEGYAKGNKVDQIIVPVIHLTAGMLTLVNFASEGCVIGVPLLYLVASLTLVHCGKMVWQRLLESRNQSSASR

Binder | FRET efficiency, E_(FRET) (AtAPH-1–RFP) | FRET efficiency, E_(FRET) (AtPEN-2–RFP) | FRET efficiency, E_(FRET) (AtNCT–RFP)
AtNCT–GFP (natural protein, Arabidopsis thaliana, UniProt Q8GUM5 29-676, looked up, Arabidopsis thaliana nicastrin (AtNCT, At3g52640); FLIM-FRET donor; also called nicastrin; source: A. thaliana leaf mesophyll protoplasts, transiently transfected (pSITE vector), in living cells; not shown: eGFP, C-terminal, kept) DEITSIESVPDLQKLMYVAVDGFPCVRLLNLSGEIGCSNPGINKVVAPIIKLKDVKDLVQPHTILVTADEMEDFFTRVSTDLSFASKIGGVLVESGSNFQQKLKGFSPDKRFPQAQFSPYENVEYKWNSAASSIMWRNYNFPVYLLSESGISAVHEILSKKKMKHGTYTSDVAEFNMVMETTKAGTHNSEACLQEGTCLPLGGYSVWSSLPPISVSSSNNRKPVVLTVASMDTASFFRDKSFGADSPISGLVALLGAVDALSRVDGISNLKKQLVFLVLTGETWGYLGSRRFLHELDLHSDAVAGLSNTSIETVLEIGSVGKGLSGGINTFFAHKTRVSSVTNMTLDALKIAQDSLASKNIKILSADTANPGIPPSSLMAFMRKNPQTSAVVLEDFDTNFVNKFYHSHLDDLSNINSSSVVAAASVVARTLYILASDNKDTSNSALGSIHVNASFVEELLTCLLACEPGLSCNLVKDYISPTNTCPGNYAGVILGEPSSKPYLGYVGDVSRFLWNFLADKTSVQKGNTTSVCSKGVCSKTDEVCIKAESNKEGTCVVSTTRYVPAYSTRLKYNDGAWTILPQNSSDSMGMVDPVWTESNWDTLRVHVYTVQHSAYDNAVLVAGITVTTLAYIGILAAKSIITKALKQD | 14% |  | 
AtPS1–GFP (natural protein, Arabidopsis thaliana, UniProt O64668 1-453, looked up, Arabidopsis thaliana presenilin 1 (AtPS1, At1g08700); FLIM-FRET donor; also called presenilin 1; source: A. thaliana leaf mesophyll protoplasts, transiently transfected (pSITE vector), in living cells; not shown: eGFP, C-terminal, kept) MESSILDSLGVEIIGVMAPVSICMFLVVLLTYSLSVTSDPQIRSAANLIYIENPSDSTTVKLEGSLANAIVFVVLIAAVTFILVLLFYYNFTNFLKHYMRFSAFFVLGTMGGAIFLSIIQHFSIPVDSITCFILLFNFTILGTLSVFAGGIPIVLRQCYMVVMGIVVAAWFTKLPEWTTWFILVALALYDLVAVLAPGGPLKLLVELASSRDEELPAMVYEARPTVSSGNQRRNRGSSLRALVGGGGVSDSGSVELQAVRNHDVNQLGRENSHNMDYNAIAVRDIDNVDDGIGNGSRGGLERSPLVGSPSASEHSTSVGTRGNMEDRESVMDEEMSPLVELMGWGDNREEARGLEESDNVVDISNRGIKLGLGDFIFYSVLVGRAAMYDLMTVYACYLAIISGLGCTLILLSVYNRALPALPISIMLGVVFYFLTRLLMEPFVVGVTTNLMMF | 19% | 24% | 19%
AtPEN-2–GFP (natural protein, Arabidopsis thaliana, UniProt Q9FY84 1-146, looked up, Arabidopsis thaliana PEN-2 (AtPEN-2, At5g09310); FLIM-FRET donor; also called presenilin enhancer 2; source: A. thaliana leaf mesophyll protoplasts, transiently transfected (pSITE vector), in living cells; not shown: eGFP, C-terminal, kept) MEATRSDDPSLNPIRNRNPNPNPNPNPLSTIISSAQVWPTIDGPLGLTEEASVDYARRFYKFGFALLPWLWFVNCFYFWPVLRHSRAFPQIRNYVVRSAIGFSVFTALLSAWALTFSIGGEQLFGPLYDKLVMYNVADRLGLSGLA |  |  | 11%
AtPS2–GFP (natural protein, Arabidopsis thaliana, UniProt Q9SIK7 1-397, looked up, Arabidopsis thaliana presenilin 2 (AtPS2, At2g29900); cDNA made from leaf RNA; FLIM-FRET donor; also called presenilin 2; AtAtPS2–GFP; source: A. thaliana leaf mesophyll protoplasts, transiently transfected (pSITE vector), in living cells; not shown: eGFP, C-terminal, kept) MDRNQRPRSILDSLGEELIAILTPVSICMFTVVLLVCILNSDPSSSSASFSSIATAAYSESDSDSSWDKFVGALLNSVVFVAAITVATFVLVLLFYLRCVKFLKFYMGFSAFIVLGNLGGEILVLLIDRFRFPIDSITFLILLFNFSVVGVFAVFMSKFSILITQGYLVWIGVLVAYFFTLLPEWTTWVLLVALALYDIAAVLLPVGPLRLLVEMAISRDEDIPALVYEARPVIRNDSRSVQRRVWREQRSSQNNANRNEVRVVESAEVEEEHVGSSERAEISVPLIDRRPEQAENSETFLEGIGLGSSGAIKLGLGDFIFYSVLVGRAAMYDLMTVYACYLAIIAGLGITLMLLSVYQKALPALPVSIMLGVVFYFLARLLLEVFVVQCSSNLVMF | 20% | 32% | 
